The data set concerns the molecule itself. The experiment in a line: crystal structure; PDC_(2.03) at 6 mg/mL in 20 mM Tris pH 7.5, 100 mM NaCl, 1 mM MgCl2, 0.5 mM DTT, 0.1 mM TPP; crystals grown in 0.1 M MES monohydrate pH 6.0, 2.4 M ammonium sulfate at 20 °C; two molecules in the asymmetric unit.

B1: PDC_(2.03), computationally designed thermostable variant of Zymomonas mobilis pyruvate decarboxylase (enzyme)
chain: MDYTVGTYLAERLVQIGLKHHFAVAGDYNLVLLDNLLDNKNMEQVYCCNELNCGFSAEGYARAKGAAAAVVTYSVGALSAFDAIGGAYAENLPVILISGAPNNNDHAAAHVLHHALGKTDYHYQLEMAKNITAAAEAIYTPEEAPAKIDHVIKTALREKKPVYLEIACNIASMPCAAPGPASALFNDEASDEASLNAAVEETLKFIENRDKVAVLVGSKLRAAAAEEAAVKFADALGGAVATMAAAKSFFPEENPHYIGTSWGEVSYPGVEKTMKEADAVIALAPVFNDYSTTGWTDIPDPKKLVLAEPRSVVVNGIRFPSVHLKDYLTRLAEKVSKKTGALDFFKSLNAGELKKADPADPSAPLVNAEIARQIEDLLTPNTTVIAETGDSWFNAQRMKLPNGARVEYEMQWGHIGWSVPAAFGYAVGAPERRNILMVGDGSFQLTAQEVAQMVRLKLPVIIFLINNYGYTIEVMIHDGPYNNIKNWDYAALMEVFNGNGGYDSGAGKGLKAKTAAELEEAIKVALDNTDGPTLIECFIAREDCTEELVKWGERVAAANSRKPVNKLL
notes: the wild-type structures 2WVA and 2WVG served as design template and search model; Crystallised with thiamine pyrophosphate (TPP) and Mg2+; the asymmetric unit of 5TMA holds two molecules; also called variant 2.03; source: E. coli BL21 (DE3), purified (HisPur Cobalt column, Superdex 200 size-exclusion chromatography)
As to B1, the binding result is listed as “binds”.

These data come from PMC6036693, “An iterative computational design approach to increase the thermal endurance of a mesophilic enzyme” (Biotechnology for Biofuels, 2018).
